These results are taken from patent US6428985 (REGENTS OF THE UNIVERSITY OF MICHIGAN, dated 2002).

Residue numbers refer to the chain shown, from its start. Names may count otherwise.

The target in experiment [1] is T1, mIL-10R1 on Ba/F3-mIL-10R1 cells (mouse pro-B cell line stably transfected with mIL-10R1) (murine, UniProt Q61727 17-575).
T1 construct: whole, on cells; also called IL-10 receptor
T1 sequence (looked up): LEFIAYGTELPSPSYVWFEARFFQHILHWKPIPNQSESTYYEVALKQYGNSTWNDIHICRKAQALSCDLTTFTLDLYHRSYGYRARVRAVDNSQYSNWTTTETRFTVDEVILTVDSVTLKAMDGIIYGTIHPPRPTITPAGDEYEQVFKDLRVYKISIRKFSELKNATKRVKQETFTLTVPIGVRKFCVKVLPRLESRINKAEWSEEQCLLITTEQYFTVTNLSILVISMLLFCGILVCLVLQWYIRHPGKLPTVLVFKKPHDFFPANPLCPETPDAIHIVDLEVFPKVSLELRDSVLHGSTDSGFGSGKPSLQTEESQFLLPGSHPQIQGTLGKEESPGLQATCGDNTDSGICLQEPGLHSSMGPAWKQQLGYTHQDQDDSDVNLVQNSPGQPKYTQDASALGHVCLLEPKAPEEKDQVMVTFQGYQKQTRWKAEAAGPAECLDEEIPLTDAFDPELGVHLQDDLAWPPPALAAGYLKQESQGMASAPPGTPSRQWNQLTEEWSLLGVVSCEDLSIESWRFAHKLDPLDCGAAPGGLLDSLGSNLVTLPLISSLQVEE
The experiment in a line: flow cytometry on Ba/F3-mIL-10R1 cells, 100 ng purified IL-10-myc-his, 4° C. for 2 h. On the technique in general: Flow cytometry measures light scatter and fluorescence of single cells or particles in a stream.

In experiment [2] the target is T1, mIL-10R1 on Ba/F3-mIL-10R1 cells (mouse …). Nature of the experiment: flow cytometry on Ba/F3-mIL-10R1 cells.

B1: purified hIL-10-myc-his (human IL-10 with carboxyl terminal myc-his tag) (ligand)
chain: SPGQGTQSENSCTHFPGNLPNMLRDLRDAFSRVKTFFQMKDQLDNLLLKESLLEDFKGYLGCQALSEMIQFYLEEVMPQAENQDPDIKAHVNSLGENLKTLRLRLRRCHRFLPCENKSKAVEQVKNAFNKLQEKGIYKAMSEFDIFINYIEAYMTMKIRN
notes: also called C-terminal myc-his tagged hIL-10; not shown: C-terminal myc-his tag from the pcDNA3.1-myc-his vector
Regarding B1, the binding result in experiment [1] was “binds”.

B2: hIL-10 with amino terminal FLAG tag (pFLAGCMV-1 construct) (ligand, not shown: small tags and cut ends)
chain: B1 chain
notes: also called amino terminal FLAG construct of hIL-10
Turning to B2, the binding result in experiment [2] is reported as “binds”.

B3: purified hIL-10(I87A)-myc-his (human IL-10 with the single mutation, carboxyl terminal myc-his tag) (ligand)
chain: B1 chain with I87A
notes: also called hIL-10(187A); Ala87 version of IL-10; not shown: C-terminal myc-his tag from the pcDNA3.1-myc-his vector
With B3, the binding result in experiment [1] is reported as “binds”.
